The target in assay [1] is SARS-CoV-2 RBD recombinant protein (SARS-CoV-2, Wuhan-Hu-1 (QHD43416.1), UniProt P0DTC2). The assay is described as follows: BLI. (In general: In BLI a coated tip is dipped into the sample, and binding shifts an interference pattern.)
In assay [2] the target is SARS-CoV RBD recombinant protein (SARS-CoV; strain of construct not …, UniProt Q19QX0). Kind of assay: BLI.

B1: MW06 (antibody, V domains shown)
VH: EVQLLESGGGLVQPGGSLRLSCAASGFTFSSYAMNWVRQAPGKGLEWVSVISGSGGSTYYADSVRGRFTISRDNSKNTLYLQMNSLRAEDTAVYCCAKGYYYDSSGYYFREDAFDIWGQGTLVTVSS
VL: DIQMTQSPSAMSASVGDRVTITCRASQGISNYLAWFQQKPGKVPKRLIYAASSLQSGVPSRFSGSGSGTEFTLTISSLQPEDFATYYCLQHNSYPYTFGQGTKLEIK
A word on the Kd: it is the concentration at which binding is half-saturated. For B1, the Kd in assay [1] was 5.48 nM; in assay [2], 12.3 nM.

B2: MW05 (antibody, V domains shown)
VH: EVQLVQSGAEVKKPGSSVKVSCKASGGTFSSYAISWVRQAPGQGLEWMGRIIPIFGSSNYAQKFQGRVTITADESTSTAYMELSSLRSEDTAVYYCAESPLGGGSGYSVSWFDPWGQGTLVTVSS
VL: not shown
For the molecule B2, the binding result in assay [1] was “binds”.

These data come from PMC8317929 (mAbs, 2021).
